In patent US20230203170A1 (DRAGONBOAT BIOPHARMACEUTICAL SHANGHAI, published 2023):

T1: full-length mouse CSF-1R (RefSeq ID NP_001032948) expressed on HEK293F cells (mouse, UniProt P09581 20-977)
T1 construct: whole, on cells
T1 sequence (looked up): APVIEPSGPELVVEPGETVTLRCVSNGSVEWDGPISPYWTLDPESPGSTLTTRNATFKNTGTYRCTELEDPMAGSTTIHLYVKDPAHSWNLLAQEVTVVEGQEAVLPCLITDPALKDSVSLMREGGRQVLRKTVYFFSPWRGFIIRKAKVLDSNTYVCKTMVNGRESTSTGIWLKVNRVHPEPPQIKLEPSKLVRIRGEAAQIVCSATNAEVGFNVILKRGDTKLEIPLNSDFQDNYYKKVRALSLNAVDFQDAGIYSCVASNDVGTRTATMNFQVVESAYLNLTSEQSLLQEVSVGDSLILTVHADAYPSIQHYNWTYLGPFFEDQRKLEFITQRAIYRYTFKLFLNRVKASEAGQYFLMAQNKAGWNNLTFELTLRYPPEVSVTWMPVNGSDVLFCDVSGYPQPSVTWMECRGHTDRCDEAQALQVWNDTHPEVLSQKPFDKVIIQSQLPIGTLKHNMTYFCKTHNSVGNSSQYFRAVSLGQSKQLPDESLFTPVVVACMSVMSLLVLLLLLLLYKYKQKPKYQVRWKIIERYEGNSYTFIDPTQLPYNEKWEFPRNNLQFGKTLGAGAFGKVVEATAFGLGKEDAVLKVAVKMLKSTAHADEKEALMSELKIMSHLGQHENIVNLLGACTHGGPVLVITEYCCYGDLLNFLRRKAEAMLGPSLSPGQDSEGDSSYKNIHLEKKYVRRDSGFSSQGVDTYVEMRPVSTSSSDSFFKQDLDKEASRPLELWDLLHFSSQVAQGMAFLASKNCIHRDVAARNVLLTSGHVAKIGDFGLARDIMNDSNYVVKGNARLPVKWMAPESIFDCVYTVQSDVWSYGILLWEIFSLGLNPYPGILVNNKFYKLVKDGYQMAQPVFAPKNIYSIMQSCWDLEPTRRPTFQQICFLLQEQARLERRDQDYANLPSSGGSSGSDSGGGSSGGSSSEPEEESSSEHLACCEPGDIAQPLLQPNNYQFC


Columns and labels:
[1] = target: full-length mouse CSF-1R (RefSeq ID NP_001032948) expressed on HEK293F cells (mouse) (UniProt P09581); experiment: flow cytometry on HEK293F cells transiently expressing full-length mouse CSF-1R (IRES-EGFP vector), IgG at 100 nM, Alexa Fluor 647 anti-human Fc detection [Conti.]
[2] = target: T1, full-length mouse CSF-1R (RefSeq ID …); experiment: flow cytometry on transfected HEK293F cells
Experimental: (§1) The specificities of the antibodies were also assessed against human, monkey and mouse CSF-1R that are transiently expressed on the surface of HEK293F cells (FIG. 1). Briefly, HEK293F cells were transfected with a plasmid expressing full-length human, monkey (RefSeq ID XP_015307616) or mouse (RefSeq ID NP_001032948) CSF-1R from a bicistronic IRES vector. EGFP was used to identify the transfected cells. After 40 hrs, the transfected cells were harvested and then washed once with 1% PBSA buffer (1% (w/v) BSA in 1×PBS). Cells were then incubated with various IgGs (each at 100 nM) for 1 hr at room temperature, washed once with pre-chilled 1% PBSA buffer, and incubated with Alexa Fluor® 647 conjugated mouse anti-human Fc antibodies for 30 min on ice. The cells were washed once prior to analysis by flow cytometry (Beckman® CytoFlex).

[3] = target: T2, human CSF1R-His (Acrobiosystem, CSR-H5228) (human, UniProt P07333 20-512, limits assumed); experiment: SPR Biacore T200; IgG captured by anti-human Fc, CSF1R-His as analyte, 1:1 fit
T2 construct: Bought protein; The catalogue number is printed only for the SPR assay; also called human CSF-1R protein; not shown: His tag
From the text: The specific binding affinity and kinetics of antibodies against human CSF-1R protein were examined by surface plasmon resonance (SPR) analysis using a Biacore™ T200 instrument (GE, USA) according to the manufacturer’s guidelines. Anti-Human IgG (Fc) antibody (Sigma, I2136) was immobilized on CM5 chips according to the instructions of Amine Coupling kit (GE Biacore #BR-1000-50). The immobilized Anti-Human IgG (Fc) antibody was used to capture the antibodies. […] The running buffer used was 0.01 M HEPES, 0.15 M NaCl, 3 mM EDTA, 0.05% (v/v) surfactant P20, pH 7.4. Corresponding controls were conducted in each case using a blank flow cell with no protein captured for “background” subtraction. The association and dissociation curves were fitted to a 1:1 Langmuir binding model using Biacore T200 Evaluation Software (GE, USA) according to the manufacturer’s guidelines.

[4] = target: T1, full-length mouse CSF-1R (RefSeq ID …); experiment: flow cytometry on HEK293F cells transiently expressing full-length mouse CSF-1R (IRES-EGFP vector), Alexa Fluor 647 anti-human Fc detection [Conti.]
Experimental: as §1

[5] = target: T3, full-length human CSF-1R expressed on cells (human, UniProt P07333 20-972); experiment: flow cytometry on HEK293F cells transiently expressing full-length human CSF-1R (IRES-EGFP vector), IgG at 100 nM, Alexa Fluor 647 anti-human Fc detection [Conti.]
T3 construct: whole, on cells
Experimental: as §1

[6] = target: full-length monkey CSF-1R (RefSeq ID XP_015307616) expressed on HEK293F cells (monkey, UniProt A0A2K5WG90 20-976); experiment: flow cytometry on HEK293F cells transiently expressing full-length monkey CSF-1R (IRES-EGFP vector), IgG at 100 nM, Alexa Fluor 647 anti-human Fc detection [Conti.]
Experimental: as §1

full-length monkey CSF-1R (RefSeq ID XP_015307616) expressed on HEK293F cells, sequence (A0A2K5WG90 entry or part of it limits assumed, form in doubt): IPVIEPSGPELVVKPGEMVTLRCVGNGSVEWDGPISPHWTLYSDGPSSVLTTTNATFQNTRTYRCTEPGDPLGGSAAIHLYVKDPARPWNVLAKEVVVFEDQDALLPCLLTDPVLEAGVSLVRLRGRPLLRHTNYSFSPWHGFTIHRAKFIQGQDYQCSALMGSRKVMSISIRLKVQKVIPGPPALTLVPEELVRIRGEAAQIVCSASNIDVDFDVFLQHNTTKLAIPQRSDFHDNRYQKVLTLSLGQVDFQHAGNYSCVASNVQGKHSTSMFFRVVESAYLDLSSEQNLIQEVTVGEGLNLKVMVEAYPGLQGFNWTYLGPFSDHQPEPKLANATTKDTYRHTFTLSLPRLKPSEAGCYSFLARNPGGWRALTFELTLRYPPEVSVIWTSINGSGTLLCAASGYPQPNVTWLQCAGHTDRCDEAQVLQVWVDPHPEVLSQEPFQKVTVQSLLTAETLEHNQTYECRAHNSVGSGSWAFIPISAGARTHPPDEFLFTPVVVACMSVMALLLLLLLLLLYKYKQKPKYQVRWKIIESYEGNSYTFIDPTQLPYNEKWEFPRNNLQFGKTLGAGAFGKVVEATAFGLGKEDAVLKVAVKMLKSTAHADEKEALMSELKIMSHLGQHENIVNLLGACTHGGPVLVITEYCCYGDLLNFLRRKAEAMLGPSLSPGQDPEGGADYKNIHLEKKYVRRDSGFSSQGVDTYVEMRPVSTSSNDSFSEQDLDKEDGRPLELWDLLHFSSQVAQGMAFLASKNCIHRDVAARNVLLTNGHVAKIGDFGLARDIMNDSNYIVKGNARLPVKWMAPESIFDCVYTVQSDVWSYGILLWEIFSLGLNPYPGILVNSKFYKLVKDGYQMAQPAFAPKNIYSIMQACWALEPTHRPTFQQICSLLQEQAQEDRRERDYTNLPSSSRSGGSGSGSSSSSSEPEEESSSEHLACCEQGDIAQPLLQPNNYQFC

| percent of cells in the upper right quadrant (APC Ab binding positive, FITC Ag display positive) [1] [%] | binding result [2] | Kd [3] [nM] | binding result [4] | percent of cells in the upper right quadrant (APC Ab binding positive, FITC Ag display positive) [5] [%] | percent of cells in the upper right quadrant (APC Ab binding positive, FITC Ag display positive) [6] [%] | Molecule |
| --- | --- | --- | --- | --- | --- | --- |
| 0.17 | – | – | – | – | – | Isotype Ctrl (antibody) |
| – | no binding (tested: 100 nM) | 20.9 | – | – | – | TY21431 (antibody, human IgG4, V domains shown, Human IgG4 isotype with S241P mutation) VH: EVQLVESGGGLVQPGGSLRLSCAASGFTFTDYAIHWVRQAPGKGLEWVSVISGYGSSTYYADSVKGRFTISRDNSKNTLYLQLNSLRAEDTAVYYCARGSYSSVYFDVWGQGTLVTVSS VL: DIQLTQSPSSLSASVGDRVTITCKASQDVRTAVAWYQQKPGKAPKLLIYAASSLQSGVPSRFSGSGSGTDFTLTISSLQPEDFATYYCQQSYPIPFTFGQGTKVEIK |
| – | – | 8.35 | no binding (tested: 100 nM) | 41.2 | 32.3 | TY21430 (antibody, human IgG4, V domains shown, Human IgG4 isotype with S241P mutation) VH: EVQLVESGGGLVQPGGSLRLSCAASGYSITSGHHWAWIRQAPGKGLEWVSSISGSGSTTYYADSVKGRFTISRDNSKNTLYLQLNSLRAEDTAVYYCARGSYYGAGSFDYWGQGTLVTVSS VL: DIQLTQSPSSLSASVGDRVTITCRASQGITSALAWYQQKPGKAPKLLIYDASSLESGVPSRFSGSGSGTDFTLTISSLQPEDFATYYCQQYYPWPWTFGQGTKVEIK |
| – | – | 13.8 | no binding (tested: 100 nM) | 41.7 | 28.8 | TY21432 (antibody, human IgG4, V domains shown, Human IgG4 isotype with S241P mutation) VH: EVQLVESGGGLVQPGGSLRLSCAASGYTFSSYAIHWVRQAPGKGLEWVSVISGAGSSTYYADSVKGRFTISRDNSKNTLYLQLNSLRAEDTAVYYCARRTPAGNYFDYWGQGTLVTVSS VL: DIQLTQSPSSLSASVGDRVTITCRASQGISRWLAWYQQKPGKAPKLLIYDASSLESGVPSRFSGSGSGTDFTLTISSLQPEDFATYYCEQYLEVPPTFGQGTKVEIK |
